Assay results as given in the supplement of paper PMC9732359.
± gives the uncertainty stated by the source.

Experiment: protein stability index of a GFP-peptide fusion (yeast GPS) (PSI 1-4); higher = more stable; sorted into four equal gates, so the index is relative within each strain
Summary of the method: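 Peptides tiling yeast proteins in 17-residue segments were fused downstream of GFP, with Cherry expressed from the same plasmid. As a pooled library in yeast, mid-log cultures grown in leucine-free medium were sorted into four equal gates by GFP/Cherry fluorescence ratio. Gate plasmids were PCR-amplified and Illumina-sequenced, and barcodes linked reads to strains. Each peptide received a protein stability index equal to the sum of each gate's read frequency times its gate number.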

Sequence: AVKLGDLKKFTSTITKY [RPN3]
- protein stability index (doa10∆): 2.1 ± 0.056
- protein stability index (pdr5∆): 2.51 ± 0.044
- protein stability index (san1∆): 2.27 ± 0.066
- protein stability index (ubr1∆): 2.56 ± 0.035

Sequence: DIKAPSTFENRNVGKTL [RPS1A]
- protein stability index (doa10∆): 2.95 ± 0.074
- protein stability index (pdr5∆): 2.72 ± 0.06
- protein stability index (san1∆): 3 ± 0.052
- protein stability index (ubr1∆): 3.1 ± 0.057

Sequence: EERSNNLLTPQPTNFTT [MCD1]
- protein stability index (doa10∆): 3.02 ± 0.061
- protein stability index (pdr5∆): 3.11 ± 0.063
- protein stability index (san1∆): 2.91 ± 0.061
- protein stability index (ubr1∆): 3.12 ± 0.05

Sequence: GTQMTLKTFHFAGVASM [RPO31]
- protein stability index (doa10∆): 1.63 ± 0.11
- protein stability index (pdr5∆): 1.85 ± 0.088
- protein stability index (san1∆): 1.68 ± 0.13
- protein stability index (ubr1∆): 2.1 ± 0.12

Sequence: YFKLSITSFDQDVDDAH [POP8]
- protein stability index (doa10∆): 1.78 ± 0.05
- protein stability index (pdr5∆): 1.95 ± 0.075
- protein stability index (san1∆): 1.78 ± 0.095
- protein stability index (ubr1∆): 2.25 ± 0.055

Sequence: TGVMIGIDLAYNMYDAY [PRP8]
- protein stability index (doa10∆): 2.5 ± 0.064
- protein stability index (pdr5∆): 2.69 ± 0.053
- protein stability index (san1∆): 2.82 ± 0.066
- protein stability index (ubr1∆): 2.84 ± 0.051

Sequence: TMVIQDEDWSVRIDKAL [ECM29]
- protein stability index (doa10∆): 2.84 ± 0.19
- protein stability index (pdr5∆): 3.21 ± 0.18

Sequence: VSNSGAQDEEIHKQIVI [UBP6]
- protein stability index (doa10∆): 3.17 ± 0.16
- protein stability index (pdr5∆): 3.5 ± 0.14
- protein stability index (san1∆): 3.08 ± 0.14
- protein stability index (ubr1∆): 3.16 ± 0.11

Sequence: GKTSFFQALGVPTKIAR [RPP0]
- protein stability index (doa10∆): 3.24 ± 0.1
- protein stability index (pdr5∆): 3.29 ± 0.091
- protein stability index (san1∆): 2.98 ± 0.11
- protein stability index (ubr1∆): 3.26 ± 0.071

Sequence: DAIIPFAAIPEQGIELE [FAS2]
- protein stability index (doa10∆): 3.12 ± 0.15
- protein stability index (pdr5∆): 2.84 ± 0.2
- protein stability index (san1∆): 3.42 ± 0.084
- protein stability index (ubr1∆): 3.41 ± 0.1

Sequence: PIDIFQIIRRVKEMEPK [SIR3]
- protein stability index (doa10∆): 3.1 ± 0.13
- protein stability index (pdr5∆): 3.22 ± 0.18
- protein stability index (ubr1∆): 2.94 ± 0.29

Sequence: SASLHLNYGVYLNGTLI [RET1]
- protein stability index (doa10∆): 2.65 ± 0.16
- protein stability index (san1∆): 3.09 ± 0.1
- protein stability index (ubr1∆): 3.18 ± 0.092

Sequence: GLNSDAEEVRNFALTTL [ECM29]
- protein stability index (doa10∆): 2.84 ± 0.14
- protein stability index (pdr5∆): 3.13 ± 0.29
- protein stability index (san1∆): 1.38 ± 0.098
- protein stability index (ubr1∆): 1.62 ± 0.11

Sequence: LNLPLQFSLPNGDNSTT [SNF12]
- protein stability index (doa10∆): 2.48 ± 0.047
- protein stability index (pdr5∆): 1.99 ± 0.043
- protein stability index (san1∆): 2.283 ± 0.013
- protein stability index (ubr1∆): 2.08 ± 0.038

Sequence: DPKFVNSLLAKLKDSKK [YML103C/NUP188]
- protein stability index (doa10∆): 2.54 ± 0.2
- protein stability index (pdr5∆): 2.86 ± 0.1
- protein stability index (san1∆): 1.99 ± 0.15
- protein stability index (ubr1∆): 2.54 ± 0.082

Sequence: KTKYILQRPTATDEESV [CSN12]
- protein stability index (doa10∆): 3.18 ± 0.084
- protein stability index (pdr5∆): 3.12 ± 0.081
- protein stability index (san1∆): 2.95 ± 0.17
- protein stability index (ubr1∆): 3.14 ± 0.2

Sequence: SAKGPEIIPLQDYYIIG [MED6]
- protein stability index (doa10∆): 3.18 ± 0.098
- protein stability index (pdr5∆): 3.14 ± 0.054
- protein stability index (san1∆): 3.14 ± 0.044
- protein stability index (ubr1∆): 3.31 ± 0.063

Sequence: SKPAFSFGAKSDEKKDG [YJL041W/NSP1]
- protein stability index (doa10∆): 3.25 ± 0.17
- protein stability index (pdr5∆): 2.97 ± 0.13
- protein stability index (san1∆): 3.25 ± 0.12

Sequence: AAEKSFKPPKNKYKVVR [SEC65]
- protein stability index (doa10∆): 3 ± 0.28
- protein stability index (pdr5∆): 3.08 ± 0.19
- protein stability index (san1∆): 3.05 ± 0.12
- protein stability index (ubr1∆): 3.15 ± 0.12

Sequence: KERSDGKRHIFDVNTLC [CDC53]
- protein stability index (doa10∆): 1.27 ± 0.052
- protein stability index (pdr5∆): 1.76 ± 0.062
- protein stability index (san1∆): 1.26 ± 0.13
- protein stability index (ubr1∆): 1.92 ± 0.085

Sequence: NLTRGINLRKVAEKMNG [RPT6]
- protein stability index (doa10∆): 1.63 ± 0.069
- protein stability index (pdr5∆): 1.47 ± 0.05
- protein stability index (san1∆): 2.31 ± 0.052
- protein stability index (ubr1∆): 1.28 ± 0.044

Sequence: GMLAMASLHSKELTRIP [MED4]
- protein stability index (doa10∆): 2.18 ± 0.14
- protein stability index (pdr5∆): 2.37 ± 0.12
- protein stability index (san1∆): 2.27 ± 0.2
- protein stability index (ubr1∆): 1.88 ± 0.19

Sequence: DIDGIMDNPRKLSKILR [SNU114]
- protein stability index (doa10∆): 3.01 ± 0.074
- protein stability index (pdr5∆): 2.96 ± 0.084
- protein stability index (san1∆): 2.94 ± 0.058
- protein stability index (ubr1∆): 2.96 ± 0.067

Sequence: LAKTKENYDAKIELEKK [YIL149C/MLP2]
- protein stability index (doa10∆): 3.22 ± 0.058
- protein stability index (pdr5∆): 3.47 ± 0.075
- protein stability index (san1∆): 3.05 ± 0.061
- protein stability index (ubr1∆): 3.13 ± 0.053

Sequence: LTKFRQKLMQLVVLTDV [RGR1]
- protein stability index (doa10∆): 1.26 ± 0.097
- protein stability index (pdr5∆): 1.16 ± 0.074
- protein stability index (san1∆): 1.24 ± 0.18
- protein stability index (ubr1∆): 1.13 ± 0.05

Sequence: LKIIHDTFRWVGKKSAP [RPO31]
- protein stability index (doa10∆): 2.51 ± 0.15
- protein stability index (pdr5∆): 2.43 ± 0.21
- protein stability index (san1∆): 2.35 ± 0.2
- protein stability index (ubr1∆): 3.14 ± 0.11

Sequence: TALALKYLIKYNVFRQH [CSI1]
- protein stability index (doa10∆): 1.63 ± 0.06
- protein stability index (pdr5∆): 1.8 ± 0.049
- protein stability index (san1∆): 1.7 ± 0.11
- protein stability index (ubr1∆): 1.86 ± 0.053

Sequence: ERQMNFLTNELIRLQME [SWI3]
- protein stability index (doa10∆): 3.07 ± 0.11
- protein stability index (pdr5∆): 3.12 ± 0.072
- protein stability index (san1∆): 3.22 ± 0.048
- protein stability index (ubr1∆): 3.09 ± 0.069

Sequence: QKMAKAKKQNRPLPQWI [RPL39]
- protein stability index (doa10∆): 2.97 ± 0.13
- protein stability index (pdr5∆): 3.07 ± 0.057
- protein stability index (san1∆): 3 ± 0.081
- protein stability index (ubr1∆): 3.14 ± 0.059

Sequence: SPSPILLTSAGCKNGSF [NUT1]
- protein stability index (doa10∆): 2.01 ± 0.1
- protein stability index (pdr5∆): 2.06 ± 0.052
- protein stability index (san1∆): 1.61 ± 0.24
- protein stability index (ubr1∆): 2.41 ± 0.073

Sequence: GAGIQIIMQADLALKMG [FAS2]
- protein stability index (doa10∆): 1.84 ± 0.094
- protein stability index (pdr5∆): 2.09 ± 0.065
- protein stability index (san1∆): 1.73 ± 0.071
- protein stability index (ubr1∆): 2.03 ± 0.051

Sequence: GSGVDSSKLQLTKKYSF [RRP42]
- protein stability index (doa10∆): 2.67 ± 0.12
- protein stability index (pdr5∆): 2.8 ± 0.062
- protein stability index (san1∆): 1.55 ± 0.12
- protein stability index (ubr1∆): 2.83 ± 0.071

Sequence: SLNEDVEEIKLQKEKEL [SMC2]
- protein stability index (pdr5∆): 1.83 ± 0.25

Sequence: SNSANVSSPESEKNKRQ [ITC1]
- protein stability index (doa10∆): 2.93 ± 0.06
- protein stability index (pdr5∆): 3.1 ± 0.045
- protein stability index (san1∆): 2.95 ± 0.036
- protein stability index (ubr1∆): 3.09 ± 0.033

Sequence: ERGGKFHESGSQYSTMV [RGR1]
- protein stability index (doa10∆): 3.36 ± 0.12
- protein stability index (pdr5∆): 3.45 ± 0.12
- protein stability index (san1∆): 3.44 ± 0.25
- protein stability index (ubr1∆): 3.3 ± 0.14

Sequence: GSSRIIASDGSECIVSI [RRP42]
- protein stability index (doa10∆): 3.33 ± 0.14
- protein stability index (pdr5∆): 3.27 ± 0.075
- protein stability index (san1∆): 3.11 ± 0.061
- protein stability index (ubr1∆): 3.12 ± 0.15

Sequence: LLENPNCFFDVIVPQIV [DIS3]
- protein stability index (doa10∆): 3.23 ± 0.13
- protein stability index (pdr5∆): 3.12 ± 0.12
- protein stability index (san1∆): 2.99 ± 0.065
- protein stability index (ubr1∆): 2.36 ± 0.095

Sequence: ETKVDELRYQSHILNSH [DSN1]
- protein stability index (doa10∆): 2.38 ± 0.067
- protein stability index (pdr5∆): 2.84 ± 0.057
- protein stability index (san1∆): 2.79 ± 0.055
- protein stability index (ubr1∆): 3 ± 0.05

Sequence: GEANKHHWEDLQKRVIE [RPN5]
- protein stability index (doa10∆): 2.98 ± 0.26
- protein stability index (pdr5∆): 3.4 ± 0.26
- protein stability index (san1∆): 2.93 ± 0.18
- protein stability index (ubr1∆): 3.81 ± 0.27

Sequence: NEEAEARRLKNRAARDR [RPL19A]
- protein stability index (doa10∆): 3.16 ± 0.13
- protein stability index (pdr5∆): 3.32 ± 0.087
- protein stability index (san1∆): 2.89 ± 0.19
- protein stability index (ubr1∆): 3.33 ± 0.062

Sequence: VSQMVAVVGQQIISGNR [RPO31]
- protein stability index (doa10∆): 3.2 ± 0.14
- protein stability index (pdr5∆): 3.14 ± 0.15
- protein stability index (san1∆): 3 ± 0.094
- protein stability index (ubr1∆): 2.68 ± 0.13

Sequence: MDWLDNWGRKEHDLLRQ [ITC1]
- protein stability index (doa10∆): 3.22 ± 0.19
- protein stability index (pdr5∆): 3.33 ± 0.26
- protein stability index (san1∆): 3.48 ± 0.13

Sequence: AIQFVKENELLFGEKSI [YCS4]
- protein stability index (doa10∆): 2.19 ± 0.098
- protein stability index (pdr5∆): 2.09 ± 0.064
- protein stability index (san1∆): 2.58 ± 0.16
- protein stability index (ubr1∆): 1.92 ± 0.069

Sequence: VHCRISCQIAQPYEDRP [RRP45]
- protein stability index (doa10∆): 1.63 ± 0.064
- protein stability index (pdr5∆): 2.12 ± 0.12
- protein stability index (san1∆): 1.52 ± 0.22
- protein stability index (ubr1∆): 1.92 ± 0.077

Sequence: TWEECVFFDDDPLYDIT [REC8]
- protein stability index (doa10∆): 3 ± 0.13
- protein stability index (pdr5∆): 3.24 ± 0.14
- protein stability index (san1∆): 2.95 ± 0.06
- protein stability index (ubr1∆): 3.08 ± 0.059

Sequence: KADDDSVTIISAGNDKM [ASC1]
- protein stability index (doa10∆): 3.24 ± 0.091
- protein stability index (pdr5∆): 2.92 ± 0.11
- protein stability index (san1∆): 3.16 ± 0.04
- protein stability index (ubr1∆): 3.04 ± 0.058

Sequence: DQPQSSEAKRTKFSNPA [BRR2]
- protein stability index (doa10∆): 3.1 ± 0.093
- protein stability index (pdr5∆): 2.65 ± 0.068
- protein stability index (san1∆): 3.24 ± 0.086
- protein stability index (ubr1∆): 3.13 ± 0.084

Sequence: KMKIQETISKLNEYKRE [SMC2]
- protein stability index (doa10∆): 1.3 ± 0.065
- protein stability index (pdr5∆): 1.48 ± 0.051
- protein stability index (san1∆): 2.35 ± 0.084
- protein stability index (ubr1∆): 1.93 ± 0.036

Sequence: LNKGKKVTSMTPAPKIS [RPL36A]
- protein stability index (pdr5∆): 2.98 ± 0.14
- protein stability index (ubr1∆): 3.15 ± 0.12

Sequence: NDQDMFTIVSLVQLKKF [YML103C/NUP188]
- protein stability index (doa10∆): 2.18 ± 0.12
- protein stability index (pdr5∆): 2.84 ± 0.11
- protein stability index (san1∆): 1.93 ± 0.17
- protein stability index (ubr1∆): 2.04 ± 0.14

Sequence: DNDGFSFLMRQFTRFFL [ECM29]
- protein stability index (doa10∆): 1.63 ± 0.047
- protein stability index (pdr5∆): 2.19 ± 0.059
- protein stability index (san1∆): 1.87 ± 0.075
- protein stability index (ubr1∆): 2.43 ± 0.047
